Source: patent US20130295073A1, “Use of pegylated recombinant human arginase for treatment of leukemia” (Bio-Cancer Treatment International Ltd., priority 2010, published 2013)

Legend:
[1] = system: Kasumi-1a, ML2, HL60, K562, NB4, ALL-SIL and Jurkat; test: Combination effect of BCT-100 with Doxorubicin on leukemia cell lines; type: cell-based; details: FIG. 7
Description: The combination effect of BCT-100 with Doxorubicin on various leukemia cell lines was studied. The leukemia cell lines tested were myeloid leukemia cell lines Kasumi-1a, ML2, HL60, K562, NB4 and lymphocytic leukemia cell lines ALL-SIL and Jurkat.

HL60 cells [2] = test: Liver, spleen and sternum cytology of HL60-inoculated mice; type: in vivo; details: HL60-inoculated NOD/SCIDS mice; BCT-100 50 U/mice i.p. weekly for 4 weeks; doxorubicin 3 mg/kg/day i.p.; FIG. 8
Procedure: (§1) HL60 cells were injected to the tail of NOD/SCIDS mice. Treatment commenced on day 14. The animals were divided into 4 groups. The Doxorubicin group received treatment by doxorubicin, which was administrated at 3 mg/kg/day by intraperitoneal injection 3 times weekly for the first week, thereafter once per week for 4 weeks. The BCT-100 group received treatment by BCT-100, which was administrated at 50 U/mice by intraperitoneal injection weekly for 4 weeks. The combinational group received treatment of both Doxorubicin and BCT-100, administrated as described above. The control group received intraperitoneal injection of saline. […] In the control group, infiltration of leukemia in liver, spleen and sternum was observed.

All-SIL = test: IC50 of BCT-100 in leukemia cell lines; type: cell-based; details: T-cell leukemia
Description: (§2) The inhibitory effect of BCT-100 in acute myeloid leukemia cells (Kasumi-1a, ML2, HL60, K562 and NB4) and T-cell leukemia cells (Jurkat, ALL-SIL, HPB-ALL and TALL-1) was studied.

HL60 [3] = test: IC50 of BCT-100 in leukemia cell lines; type: cell-based; details: HL60, myeloid leukemia
Description: as §2

HPB-ALL = test: IC50 of BCT-100 in leukemia cell lines; type: cell-based; details: T-cell leukemia
Description: as §2

Jurkat = test: IC50 of BCT-100 in leukemia cell lines; type: cell-based; details: T-cell leukemia
Description: as §2

K562 = test: IC50 of BCT-100 in leukemia cell lines; type: cell-based; details: K562, myeloid leukemia
Description: as §2

Kasumi-1a = test: IC50 of BCT-100 in leukemia cell lines; type: cell-based; details: myeloid leukemia
Description: as §2

ML2 = test: IC50 of BCT-100 in leukemia cell lines; type: cell-based; details: ML2, myeloid leukemia
Description: as §2

NB4 [4] = test: IC50 of BCT-100 in leukemia cell lines; type: cell-based; details: NB4, myeloid leukemia
Description: as §2

TALL-1 = test: IC50 of BCT-100 in leukemia cell lines; type: cell-based; details: TALL-1, T-cell leukemia
Description: as §2

HL60 [5] = test: Cell viability in myelocytic leukemia cells; type: cell-based; details: HL60, arsenic resistant; FIG. 1a/1b
Description: (§3) The effect of BCT-100 on arsenic sensitive myelocytic cell lines (NB4 and U937) as well as arsenic resistant myelocytic cell lines (HL60 and UF1) was investigated.
(§4) Both the arsenic sensitive and resistant leukemia cells responded to the BCT-100 treatment.

NB4 [6] = test: Cell viability in myelocytic leukemia cells; type: cell-based; details: NB4, arsenic sensitive; FIG. 1a/1b
Description: as §3, §4

U937 [7] = test: Cell viability in myelocytic leukemia cells; type: cell-based; details: U937, arsenic sensitive; FIG. 1a/1b
Description: as §3, §4

UF1 [8] = test: Cell viability in myelocytic leukemia cells; type: cell-based; details: UF1, arsenic resistant; FIG. 1a/1b
Description: as §3, §4

HL60 [9] = test: Induction of apoptosis in leukemia cells; type: cell-based; details: HL60, arsenic resistant; FIG. 2
Procedure: (§5) The effect of BCT-100 in inducing apoptosis in both arsenic sensitive (NB4 and U937) and arsenic resistant (HL60 and UF1) leukemia cell lines was tested. […] However, the apoptosis rate was low in HL60 and UF1 cells in the presence of arsenic, as these cell lines are arsenic resistant.

NB4 [10] = test: Induction of apoptosis in leukemia cells; type: cell-based; details: NB4, arsenic sensitive; FIG. 2
Procedure: as §5

U937 [11] = test: Induction of apoptosis in leukemia cells; type: cell-based; details: U937, arsenic sensitive; FIG. 2
Procedure: as §5

UF1 [12] = test: Induction of apoptosis in leukemia cells; type: cell-based; details: UF1, arsenic resistant; FIG. 2
Procedure: as §5

Bax = test: Western blot of Bax expression in HL60; type: cell-based; details: 8 hrs after treatment and afterwards, FIG. 3
Procedure: (§6) Expression of Bax and pmTOR was assessed in leukemic cell line HL60 by western blotting with or without BCT-100 treatment using monoclonal antibodies against Bax and pmTOR respectively. The same blot was stripped and probed with anti-actin antibody for loading control. Apoptosis was determined by annexin V labeling. HL60 cells were cultured in medium with or without BCT-100 and the expression of annexin V were analyzed by flow-cytometry at 8, 16, 24, and 36 hrs after BCT-100 treatment.

pmTOR = test: Western blot of pmTOR expression in HL60; type: cell-based; details: FIG. 3
Procedure: as §6

HL60 cells [13] = test: Granulocytic differentiation (CD11b expression, FACS); type: cell-based; details: HL60, within 96-hour treatment; FIG. 4b
Description: (§7) The induction of granulocytic differentiation in NB4 and HL60 cells was studied. […] Specifically, decrease in nuclear to cytoplasmic ratio, appearance of cytoplasmic granules, chromatin condensation and loss of nucleoli were observed.

NB4 cells = test: as above; type: cell-based; details: NB4, within 96-hour treatment; FIG. 4a, 4b
Description: as §7

HL60 cells [14] = test: Reorganization of promyelocytic leukemia nuclear bodies (immunostaining); type: cell-based; details: HL60, anti-promyelocytic leukemia immunostaining, vs DMSO control; FIG. 5
[15] = system: T-cell acute lymphocytic leukemia, acute myeloid leukemia, hepatocellular carcinoma and pancreatic cancer cell lines; test: IC50 of BCT-100 in various cancer cell lines; type: cell-based; details: FIG. 6
Description: The IC50 values of BCT-100 in various cancer cell lines were investigated. The cancer cell lines being tested were T-cell acute lymphocytic leukemia, acute myeloid leukemia, hepatocellular carcinoma and pancreatic cancer.

HL-60 = test: Survival of HL60-inoculated mice; type: in vivo; details: HL-60-inoculated NOD/SCIDS mice; FIG. 9
Procedure: as §1
The effect of BCT-100 on the survival rate of HL-60-incoluated NOD/SCIDS mice was investigated. […] Thus BCT-100 can be administrated with Doxorubicin to treat leukemia, e.g., myeloid leukemia.

[16] = Arginine depletion in preclinical study
Description: Arginase is a manganese-containing enzyme, catalyzing the conversion of arginine to ornithine and urea, the last step of the Urea Cycle.

Question: With `COc1cccc2c1C(=O)c1c(O)c3c(c(O)c1C2=O)C[C@@](O)(C(=O)CO)C[C@@H]3O[C@H]1C[C@H](N)[C@H](O)[C@H](C)O1` [Doxorubicin, reference compound] as the molecule, how does the “therapeutic effect on leukemia cell lines” value [1] read?
Answer: effective in treating leukemia

Question: What about the “infiltration of leukemia in liver, spleen and sternum (cytology)” value (HL60 cells [2]) of the same molecule?
Answer: Modest infiltration

B1: BCT-100: pegylated recombinant human arginase; pegylating agent may be mPEG-SPA; preparation disclosed in U.S. Ser. No. 10/518,223 (protein, UniProt P05089 1-322, looked up)
Arginase-1: MSAKSRTIGIIGAPFSKGQPRGGVEEGPTVLRKAGLLEKLKEQECDVKDYGDLPFADIPNDSPFQIVKNPRSVGKASEQLAGKVAEVKKNGRISLVLGGDHSLAIGSISGHARVHPDLGVIWVDAHTDINTPLTTTSGNLHGQPVSFLLKELKGKIPDVPGFSWVTPCISAKDIVYIGLRDVDPGEHYILKTLGIKYFSMTEVDRLGIGKVMEETLSYLLGRKKRPIHLSFDVDGLDPSFTPATGTPVVGGLTYREGLYITEEIYKTGLLSGLDIMEVNPSLGKTPEEVTRTVNTAVAITLACFGLAREGNHKPIDYLNPPK
modifications: PEGylated (mPEG-SPA)
Question: For B1, which IC50 (All-SIL) is on record?
Answer: 120 mU/mL

Question: What about the IC50 (HL60 [3]) of the same molecule?
Answer: 55 mU/mL

Question: What about the IC50 (HPB-ALL) of the same molecule?
Answer: 110 mU/mL

Question: And the IC50 (Jurkat)?
Answer: 40 mU/mL

Question: And the IC50 (K562)?
Answer: 25 mU/mL

Question: What about the IC50 (Kasumi-1a) of the same molecule?
Answer: 65 mU/mL

Question: And the IC50 (ML2)?
Answer: 65 mU/mL

Question: And the IC50 (NB4 [4])?
Answer: 60 mU/mL

Question: What about the IC50 (TALL-1) of the same molecule?
Answer: 100 mU/mL

Question: And the cell viability (HL60 [5])?
Answer: dropped with increasing amount of BCT-100

Question: What about the cell viability (NB4 [6]) of the same molecule?
Answer: dropped with increasing amount of BCT-100

Question: What about the cell viability (U937 [7]) of the same molecule?
Answer: dropped with increasing amount of BCT-100

Question: And the cell viability (UF1 [8])?
Answer: dropped with increasing amount of BCT-100

Question: What about the apoptosis rate (HL60 [9]) of the same molecule?
Answer: effective in inducing apoptosis

Question: And the apoptosis rate (NB4 [10])?
Answer: effective in inducing apoptosis

Question: What about the apoptosis rate (U937 [11]) of the same molecule?
Answer: effective in inducing apoptosis

Question: What about the apoptosis rate (UF1 [12]) of the same molecule?
Answer: effective in inducing apoptosis

Question: And the Bax level (Bax)?
Answer: up-regulated

Question: And the “protein level of pmTOR” value (pmTOR)?
Answer: down-regulated

Question: What about the granulocytic differentiation (HL60 cells [13]) of the same molecule?
Answer: induced granulocytic differentiation

Question: And the granulocytic differentiation (NB4 cells)?
Answer: induced granulocytic differentiation

Question: And the “pattern of promyelocytic leukemia nuclear bodies” value (HL60 cells [14])?
Answer: the microspeckled pattern disappeared and the size and brightness of the promyelocytic leukemia bodies returned to normal

Question: And the “effectiveness in cancer cell lines” value ([15]; T-cell acute lymphocytic leukemia, acute myeloid leukemia, hepatocellular carcinoma and pancreatic cancer)?
Answer: effective

Question: And the “times more potent in leukemia and pancreatic cancer than in hepatocellular carcinoma” value ([15]; from IC50 values)?
Answer: 6-10 times

Question: What about the “therapeutic effect on leukemia cell lines” value [1] of the same molecule?
Answer: effective in treating leukemia

Question: And the “infiltration of leukemia in liver, spleen and sternum (cytology)” value (HL60 cells [2])?
Answer: Modest infiltration

Question: What about the “survival rate and survival days” value (HL-60) of the same molecule?
Answer: increased as compared to the control group

Question: What about the arginine depletion [16] of the same molecule?
Answer: efficacious in inducing arginine depletion in dose-dependent manner
